Source: the supplement of paper PMC10567573
± gives the standard deviation.

Assay: protein stability index of a GFP-peptide fusion (GPS, HEK-293T) (PSI 1-6); higher = more stable
Details: c terminus: a fixed tail appended
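Also: 24-mer peptide tiles fused after GFP, lentivirally expressed, FACS-sorted into six equal bins by GFP/DsRed ratio, decoded by Illumina sequencing, PSI is the read-weighted mean bin number.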

Sequence | protein stability index (treatment: DMSO) | protein stability index (treatment: MLN4924 1 uM, 8 h)
SRDGMNIVLNKINQILMEKYLKLQ [INTS3] | 3.05 ± 0.81 | 2.43 ± 0.58
ALSGASQPGPSGAPAQRATRGFLR [RETREG3] | 4.59 ± 0.16 | 4.78 ± 0.073
VQVLTMGNDTSPSEGTNLNAPNSL [HNF4A] | 3.97 ± 0.17 | 4.02 ± 0.18
SESRGSSGRVKRERDREREPEAAS [USP39] | 5.53 ± 0.24 | 5.59 ± 0.19
ESVADLLALEEPVDYKQSVLNVAG [SLC6A17] | 4.43 ± 0.1 | 4.58 ± 0.24
ETVYAAYLPKNTHPFLYLSLEISP [MLH1] | 2.82 ± 0.51 | –
TQELVAIKIIKNKKAFLNQAQIEL [DYRK1B] | 2.18 ± 0.27 | 2.17 ± 0.3
LPSVTDIRRPRLYLLQWLKSDKAL [PLK2] | 2.33 ± 0.24 | 2.36 ± 0.49
ITEEKVCMVCKKKIGNSAFARYPN [VPS39] | 2.73 ± 0.31 | 3.43 ± 0.53
ELSNILNLSYKQVKTWFQNQRMKS [NANOGP8] | 2.63 ± 0.49 | 2.38 ± 0.43
SVKLRALRSPRKFGVAGRSCQEVL [DFFB] | 2.73 ± 0.34 | 3.01 ± 0.54
RKFYVHIKPAPARAPACSPEAAAA [FCHO1] | 2.66 ± 0.3 | 2.82 ± 0.35
SRLPAKCPGKGAWSIPWKWLFGAT [FKBP8] | 1.99 ± 0.22 | 2.05 ± 0.28
NTEVVQVAAGRTQKAGVTRSGRLI [NEK8] | 4.32 ± 0.21 | 4.4 ± 0.16
KEDLIIPHHHSFYDFIVTKARGKS [FAM50A] | 3.4 ± 0.095 | 3.73 ± 0.16
FNAGIQQAFQLPKLGALLSRCRKL [ZBED1] | 2.63 ± 0.31 | 2.63 ± 0.29
VSTWFANARRRLKKENKMTWAPKN [IRX6] | 2.57 ± 0.22 | 2.75 ± 0.13
RGNRLKTTSWGLLSLGALVALCWQ [SCNN1D] | 2.3 ± 0.26 | 2.16 ± 0.24
CTDHELENHSMYCVQCKMPVCYQC [TRIM9] | 4.23 ± 0.23 | 4.33 ± 0.36
FEPPAPGEGNSSQNSRNKRAVQGP [TNFSF13B] | 5.3 ± 0.17 | 5.45 ± 0.2
ANAAKHTQDSARVNPQDGTNTLTR [EHMT1] | 5.13 ± 0.18 | 5.19 ± 0.14
LWAGSKGKEFGYFPRDAVQIEEVF [MIA2] | 2.66 ± 0.51 | 2.77 ± 0.46

Sequence | protein stability index (treatment: DMSO) | protein stability index (treatment: MLN4924 1 uM, 8 h)
QEILHRDLKLGNFFINEAMELKVG [PLK2] | 2.58 ± 0.25 | 2.76 ± 0.31
AVNLSVSTLPSLREEEEQVRAHAP [KCNG1] | 3.83 ± 0.54 | 4.21 ± 0.44
EPAPGSALSPAGVCGGAQRPGHLP [CDC25B] | 4.6 ± 0.15 | 4.49 ± 0.21
QPYPLPHVRHMAYQLCHALRFLHE [CLK3] | 2.34 ± 0.1 | 2.1 ± 0.23
LMHIAHIAELLEVFDLRMMVANIL [RHOBTB2] | 2.48 ± 0.4 | 2.31 ± 0.32
GLLWLLLGSAGAQYEKYSFRGFPP [P3H4] | 3.08 ± 0.098 | 3.71 ± 0.62
QEPDFIDDIEEKTPISNEVEMESE [KMT2E] | 5.24 ± 0.22 | 5.43 ± 0.23
RTHSVIKEETNHSEMAEDLCKIGS [IKZF1] | 4.9 ± 0.25 | 4.85 ± 0.46
MQQFLQKALEILRKDFSELRSAGV [FAM50A] | 3.67 ± 0.41 | 3.03 ± 0.25
SAAPSNDQDGEYCPEVKLKTTGLE [SRPK2] | 5.28 ± 0.28 | 5.26 ± 0.26
HYAFRIFDFDDDGTLNREDLSRLV [CIB1] | 2.55 ± 0.24 | 2.78 ± 0.31
LRPQRTKQYVLLSILLCLLASGLV [TMEM106C] | 3.11 ± 0.38 | 2.9 ± 0.26
SWDTESSGSDSGGSSSSSSSSINS [FAM104A] | 5.25 ± 0.22 | 5.1 ± 0.26
EAECEKSSATTYFWYREALDISDS [SLC6A17] | 3.94 ± 0.36 | 3.83 ± 0.29
TRRSTAEAFQIVLSHLLGDAGSPY [SPNS1] | 2.52 ± 0.58 | 2.56 ± 0.46
MSLLPDKKTVHYYAELGQCSVFPA [PLK2] | 2.41 ± 0.13 | 2.44 ± 0.35
SRVKCDQYWPSRGTETHGLVQVTL [PTPRD] | 2.42 ± 0.39 | 2.05 ± 0.4
RKDMIAEKLAPSEITEELPSSQLM [ZNF396] | 4.98 ± 0.16 | 4.86 ± 0.27
QDNNCHFDAALVSFINFFTSVLAT [SLC6A17] | 2.91 ± 0.3 | 2.75 ± 0.3
VFDAMFNGGMATTSAEIELPDVEP [BTBD1] | 4.68 ± 0.28 | 4.77 ± 0.24
KSAAMLAVFAVSAVVHEYALAVCL [SOAT1] | 3.22 ± 0.64 | 3.32 ± 0.54
RVQAAAFGPGQTLLSSVHVLDLEA [ALKBH7] | 3.02 ± 0.42 | 3.3 ± 0.32

Sequence | protein stability index (treatment: DMSO) | protein stability index (treatment: MLN4924 1 uM, 8 h)
HVTLTLPPTQLEVNLEEIPGEGLL [C2CD2L] | 4.07 ± 0.18 | 3.96 ± 0.42
APSIDLFSTDAFSSPPQGASPVPE [SNAP91] | 4.94 ± 0.34 | 5.04 ± 0.21
DQVPSMQDGSESFFFRHGHRGLLT [SPAG8] | 3.39 ± 0.28 | 3.54 ± 0.35
LAPVRQQELASLLRTYLARLPWAG [PBXIP1] | 2.22 ± 0.28 | 2.12 ± 0.27
FTCDEENVFAAVGRGLYVYSLQMK [WDR41] | 2.57 ± 0.56 | 2.38 ± 0.093
FQSHEPEFDYLKSLEIEEKINKIR [PPP2R2B] | 3.26 ± 0.36 | 3.56 ± 0.31
LAQAAGFAPQTGARPSETFARFCK [DNAAF3] | 3.52 ± 0.23 | 3.57 ± 0.4
ATFLVTFGNSEKPETMTCRLSNNQ [ZFYVE21] | 2.39 ± 0.15 | 2.24 ± 0.19
AFRSDDTKGHPRAVSQPFRLSSSL [CDC14A] | 3.43 ± 0.2 | 3.47 ± 0.26
FVTYVFFVFFVLLNMFLAIINDTY [PKD2L1] | 2.3 ± 0.47 | 2.26 ± 0.45
LAGGLCVGIYATNSAEACQYVITH [ACSBG2] | 2.84 ± 1.1 | 2 ± 0.36
DYMKEVGVGFATRKVAGMAKPNMI [FABP4] | 3.13 ± 0.48 | 3.06 ± 0.64
LEENELTSLAEDLLGLTDPNGGLA [TRADD] | 4.49 ± 0.27 | 4.43 ± 0.29
VNARQKQGIYEEYEDIRRENPVGT [PTPN9] | 4.83 ± 0.37 | 4.96 ± 0.29
PCLDQTRVKLTKRSGHTQTDYINA [PTPN9] | 3.99 ± 0.59 | 3.91 ± 0.1
GLNLGKKISVPRDVMLEELSLLTN [MYOZ1] | 2.72 ± 0.41 | 3.1 ± 0.29
REFKVTDARDGQSRTVRQFQFTDW [PTPRD] | 3.16 ± 0.34 | 3.11 ± 0.58
LSQPTTNLVAGCLQLNARSFMMGQ [NEUROD6] | 2.31 ± 0.17 | 2.21 ± 0.26
EKNFFPEYNYDWWEKKPFSEDVNW [CHGB] | 2.78 ± 0.54 | 2.76 ± 0.47
GAQIWCGEGVDKLSLPARNQAGYF [ALDH8A1] | 2.47 ± 0.27 | 2.65 ± 0.37
SGLIYLTNHIAPHARNGLSLKEEH [IKZF1] | 2.58 ± 0.37 | 2.71 ± 0.19
